Experimental findings from the supplement of paper PMC7877785 are described below.

± gives the uncertainty stated by the source.

This data set is described as follows: self-splicing fitness, log relative to wild type (ln ratio); higher = more splicing; Tetrahymena group I intron in knt gene, E. coli kanamycin selection, DiMSum; sequences stand for … in CUCUCU…GGAGGGAAAAGUUAUCAGGCAUGCACCUGGUAGCUAGUCUUUAAACCAAUAGAUUGCAUCGGUUUAAAAGGCAAGACCGUCAAAUUGCGGGAAAGGGGUCAACAGCCGUUCAGUACCAAGUCUCAGGGGAAACUUUGAGAUGGCCUUGCAAAGGGUAUGGUAAUAAGCUGACGGACAUGGUCCUAACCACGCAGCCAAGUCCUAAGUCAACAGAUCUUCUGUUGAUAUGGAUGCAGUUCACAGACUAAAUGUCGGUCGGGGAAGAUGUAUUCUUCUCAUAAGAUAUAGUCGGACCUCUCCUUAAUGGGAGCUAGCGGAUGAAGUGAUGCAACACUGGAGCCGCUGGGAACUAAUUUGUAUGCGAAAGUAUAUUGAUUAGUUUUGGAGUACUCGUGGUCG
Put shortly:
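Colonies from six replicate transformations of E. coli BL21(DE3) were pooled and amplicon-sequenced on an Illumina HiSeq 2500. The library placed an intron with all eight P1ex-region nucleotides randomised inside the knt kanamycin-resistance gene on pET-22b(+), and cells grew overnight at 37°C or 30°C on LB agar with or without 25 μg/mL kanamycin (plus 100 μg/mL carbenicillin, 50 μM IPTG, 0.2% rhamnose). Fitness is the DiMSum error-weighted combination of wild-type-normalised replicate fold changes, kanamycin versus none.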

Take GCUUAGCAAUAUUACGGUAG: the “self-splicing fitness (ln)” value (30 °C) is -2.53 ± 0.4.

Consider UUACAGCAAUAUUACGCAGU, for which the “self-splicing fitness (ln)” value (30 °C) was -4.23 ± 0.31 and the “self-splicing fitness (ln)” value (37 °C) was -2.55 ± 0.28.

Consider CCCCAGCAAUAUUACGCCCU, for which the “self-splicing fitness (ln)” value is, setting by setting: (30 °C) -4.24 ± 0.39; (37 °C) -1.98 ± 0.28.

CCGGAGCAAUAUUACGUAGC: the “self-splicing fitness (ln)” value by setting is: (30 °C) -2.74 ± 0.31; (37 °C) -2.04 ± 0.46.

Consider CUCCAGCAAUAUUACGCUGG, for which the “self-splicing fitness (ln)” value (30 °C) is -1.92 ± 0.23.

On to CCUGAGCAAUAUUACGCCAU, for which the “self-splicing fitness (ln)” value reads like this: (30 °C) -3.2 ± 0.4; (37 °C) -2.13 ± 0.33.

With UUGAAGCAAUAUUACGACUA, the “self-splicing fitness (ln)” value is, setting by setting: (30 °C) 0.321 ± 0.098; (37 °C) 0.141 ± 0.11.

On to ACCGAGCAAUAUUACGUAAG, for which the “self-splicing fitness (ln)” value reads like this: (30 °C) -2.67 ± 0.13; (37 °C) -2.13 ± 0.16.

As to GUUAAGCAAUAUUACGCUGU, the “self-splicing fitness (ln)” value was -2.62 ± 0.21 (30 °C) and -1.78 ± 0.17 (37 °C).

With CCUGAGCAAUAUUACGAUGA, the “self-splicing fitness (ln)” value (30 °C) is -2.57 ± 0.2 and the “self-splicing fitness (ln)” value (37 °C) is -1.44 ± 0.18.

In the case of UAUUAGCAAUAUUACGUGCU, the “self-splicing fitness (ln)” value was -2.12 ± 0.12 (30 °C) and -2.04 ± 0.15 (37 °C).

As to UGACAGCAAUAUUACGUGGU, the “self-splicing fitness (ln)” value reads like this: (30 °C) -3.23 ± 0.15; (37 °C) -2.22 ± 0.12.

Turning to GAUAAGCAAUAUUACGGUCC, the “self-splicing fitness (ln)” value (37 °C) was -3.48 ± 0.46.

As for GGACAGCAAUAUUACGGUCA, the “self-splicing fitness (ln)” value was -0.242 ± 0.046 (30 °C) and 0.817 ± 0.07 (37 °C).

As for UCUGAGCAAUAUUACGUCAU, the “self-splicing fitness (ln)” value is, setting by setting: (30 °C) -3.81 ± 0.35; (37 °C) -2.76 ± 0.2.

In the case of CUAAAGCAAUAUUACGGUGC, the “self-splicing fitness (ln)” value is -3.22 ± 0.16 (30 °C) and -3.15 ± 0.25 (37 °C).

Regarding CGCGAGCAAUAUUACGCACA, the “self-splicing fitness (ln)” value is -2.3 ± 0.19 (30 °C) and -1.16 ± 0.18 (37 °C).

Turning to CAGAAGCAAUAUUACGCCCG, the “self-splicing fitness (ln)” value (30 °C) is -0.995 ± 0.15 and the “self-splicing fitness (ln)” value (37 °C) amounted to 0.147 ± 0.16.

With AGUCAGCAAUAUUACGCCAA, the “self-splicing fitness (ln)” value is, setting by setting: (30 °C) -2.75 ± 0.34; (37 °C) -0.963 ± 0.2.

Regarding UAGUAGCAAUAUUACGGACU, the “self-splicing fitness (ln)” value is, setting by setting: (30 °C) -0.0123 ± 0.18; (37 °C) 0.484 ± 0.15.

Regarding GGAAAGCAAUAUUACGGUCG, the “self-splicing fitness (ln)” value by setting is: (30 °C) 0.127 ± 0.092; (37 °C) -0.296 ± 0.12.

As to ACGAAGCAAUAUUACGGUGU, the “self-splicing fitness (ln)” value by setting is: (30 °C) -2.71 ± 0.11; (37 °C) -1.59 ± 0.095.

Consider AUAAAGCAAUAUUACGGCAC, for which the “self-splicing fitness (ln)” value was -0.531 ± 0.073 (30 °C) and -0.1 ± 0.11 (37 °C).

Regarding GGUUAGCAAUAUUACGUAUG, the “self-splicing fitness (ln)” value runs as follows: (30 °C) -3.18 ± 0.17; (37 °C) -0.52 ± 0.15.

AAGUAGCAAUAUUACGCGAA: the “self-splicing fitness (ln)” value by setting is: (30 °C) -2.76 ± 0.23; (37 °C) -0.182 ± 0.18.

With AGUCAGCAAUAUUACGCUCG, the “self-splicing fitness (ln)” value runs as follows: (30 °C) -0.828 ± 0.075; (37 °C) -0.495 ± 0.098.

Consider ACGCAGCAAUAUUACGGGCU, for which the “self-splicing fitness (ln)” value was -2.46 ± 0.11 (30 °C) and -1.36 ± 0.12 (37 °C).

With UAAAAGCAAUAUUACGUCCG, the “self-splicing fitness (ln)” value (30 °C) is -0.59 ± 0.082 and the “self-splicing fitness (ln)” value (37 °C) was determined as 0.205 ± 0.1.

In the case of GUCAAGCAAUAUUACGUAGA, the “self-splicing fitness (ln)” value is, setting by setting: (30 °C) -2.04 ± 0.1; (37 °C) -1.17 ± 0.12.

ACACAGCAAUAUUACGCUCA: the “self-splicing fitness (ln)” value reads like this: (30 °C) -0.416 ± 0.087; (37 °C) -0.203 ± 0.093.

Take GUAAAGCAAUAUUACGGCGA: the “self-splicing fitness (ln)” value runs as follows: (30 °C) -0.00421 ± 0.11; (37 °C) -0.231 ± 0.17.

UAUAAGCAAUAUUACGUACG: the “self-splicing fitness (ln)” value is -0.621 ± 0.13 (30 °C) and -0.0322 ± 0.15 (37 °C).

As to CUUGAGCAAUAUUACGGAGC, the “self-splicing fitness (ln)” value (37 °C) is -1.42 ± 0.29.

As to GGGGAGCAAUAUUACGGACU, the “self-splicing fitness (ln)” value (30 °C) came to 0.0915 ± 0.28 and the “self-splicing fitness (ln)” value (37 °C) is -0.621 ± 0.22.

Turning to UCUUAGCAAUAUUACGUCAG, the “self-splicing fitness (ln)” value (30 °C) was -1.01 ± 0.16 and the “self-splicing fitness (ln)” value (37 °C) is -1.28 ± 0.2.

In the case of UAAUAGCAAUAUUACGCCGA, the “self-splicing fitness (ln)” value is -1.01 ± 0.29 (30 °C) and -1.51 ± 0.44 (37 °C).

For the sequence CAAAAGCAAUAUUACGAUGC, the “self-splicing fitness (ln)” value (30 °C) was -3.49 ± 0.19 and the “self-splicing fitness (ln)” value (37 °C) is -2.99 ± 0.32.

ACUAAGCAAUAUUACGCAAC: the “self-splicing fitness (ln)” value is, setting by setting: (30 °C) -3.28 ± 0.26; (37 °C) -1.17 ± 0.27.

As to CCCCAGCAAUAUUACGUGUC, the “self-splicing fitness (ln)” value is, setting by setting: (30 °C) -4.78 ± 0.2; (37 °C) -2.53 ± 0.15.

As for UCAAAGCAAUAUUACGCCGU, the “self-splicing fitness (ln)” value is -2.43 ± 0.18 (30 °C) and -0.576 ± 0.12 (37 °C).

GCCGAGCAAUAUUACGAUUA: the “self-splicing fitness (ln)” value is -1.44 ± 0.13 (30 °C) and -1.39 ± 0.15 (37 °C).

For UAUGAGCAAUAUUACGCUGG, the “self-splicing fitness (ln)” value by setting is: (30 °C) -2.71 ± 0.33; (37 °C) -1.79 ± 0.38.

For GUGUAGCAAUAUUACGGACG, the “self-splicing fitness (ln)” value is, setting by setting: (30 °C) -0.958 ± 0.14; (37 °C) -1.32 ± 0.17.

For the sequence AAUCAGCAAUAUUACGCUUG, the “self-splicing fitness (ln)” value reads like this: (30 °C) -0.11 ± 0.068; (37 °C) -0.33 ± 0.084.

UUUCAGCAAUAUUACGAUAA: the “self-splicing fitness (ln)” value by setting is: (30 °C) 0.592 ± 0.13; (37 °C) 0.707 ± 0.15.

Consider CCGGAGCAAUAUUACGUAGG, for which the “self-splicing fitness (ln)” value reads like this: (30 °C) -3.55 ± 0.26; (37 °C) -2.66 ± 0.3.

Consider GUAUAGCAAUAUUACGAUCC, for which the “self-splicing fitness (ln)” value was -0.716 ± 0.18 (30 °C) and 1.03 ± 0.22 (37 °C).

With UUUGAGCAAUAUUACGCUCA, the “self-splicing fitness (ln)” value is, setting by setting: (30 °C) -3.33 ± 0.41; (37 °C) -1.6 ± 0.41.

In the case of UCAUAGCAAUAUUACGGAAU, the “self-splicing fitness (ln)” value is -3.32 ± 0.33 (30 °C) and -3.09 ± 0.47 (37 °C).

Consider AAGAAGCAAUAUUACGUCCG, for which the “self-splicing fitness (ln)” value (30 °C) was -0.7 ± 0.073 and the “self-splicing fitness (ln)” value (37 °C) is -0.283 ± 0.099.

For UAUGAGCAAUAUUACGAGGG, the “self-splicing fitness (ln)” value (30 °C) was -3.93 ± 0.42 and the “self-splicing fitness (ln)” value (37 °C) is -2.66 ± 0.29.

GUUGAGCAAUAUUACGAGGG: the “self-splicing fitness (ln)” value was -2.7 ± 0.21 (30 °C) and -2.67 ± 0.24 (37 °C).

ACCAAGCAAUAUUACGCCGA: the “self-splicing fitness (ln)” value is -2.23 ± 0.15 (30 °C) and -1.81 ± 0.16 (37 °C).

As for CUCAAGCAAUAUUACGGAUU, the “self-splicing fitness (ln)” value was -3.66 ± 0.17 (30 °C) and -2.81 ± 0.19 (37 °C).

In the case of AGCCAGCAAUAUUACGUAUG, the “self-splicing fitness (ln)” value is, setting by setting: (30 °C) -2.08 ± 0.089; (37 °C) -3.2 ± 0.19.

As for CUUCAGCAAUAUUACGCAUA, the “self-splicing fitness (ln)” value was -4.27 ± 0.37 (30 °C) and -1.82 ± 0.17 (37 °C).

As for UUCAAGCAAUAUUACGUCCA, the “self-splicing fitness (ln)” value is, setting by setting: (30 °C) -1.12 ± 0.11; (37 °C) -0.803 ± 0.098.

As to GUGAAGCAAUAUUACGGUAA, the “self-splicing fitness (ln)” value runs as follows: (30 °C) -0.519 ± 0.073; (37 °C) -0.169 ± 0.1.

For the sequence CCUAAGCAAUAUUACGGUUU, the “self-splicing fitness (ln)” value by setting is: (30 °C) -4.49 ± 0.34; (37 °C) -3.07 ± 0.34.

Regarding GAGAAGCAAUAUUACGCUUG, the “self-splicing fitness (ln)” value by setting is: (30 °C) -2.34 ± 0.1; (37 °C) -0.658 ± 0.13.

Consider CUAGAGCAAUAUUACGUUAC, for which the “self-splicing fitness (ln)” value (30 °C) was -2.88 ± 0.27.
